Source: patent US9409976B2, “CDIM binding proteins and uses thereof” (IGM BIOSCIENCES, INC., priority 2012, dated 2016)
Entries after “also recorded” stand apart in the source; their conditions may differ.

Assays:
[1] = tested on: human pro-B cell line NALM-6; experiment: Cytotoxicity resulting from cellular binding, propidium iodine uptake; type: cell-based; conditions: NALM-6 cells, viability after 1 hour of staining
Experimental: This example describes how the cytotoxicity of the CDIM binding proteins was investigated. The human pro-B cell line NALM-6 was stained identically as described in FIG. 6A above. In FIG. 6B, cell killing was evaluated by measuring cell viability after 1 hour of staining. […] Results are shown as raw data with % viability on Y-axis and concentration (μg/100 μl) on X-axis.
Identical results were graphed using GraphPad analysis program and data fit using non-linear regression curve fitting. The EC50 was calculated for each antibody using the same approach described above. EC50 (μg/100 μl) for each antibody was (a) 3.0 for IGM1, (b) 0.6 for IGM 23, (c) 0.6 for IGM34, and (d) 0.3 for IGM36.

[2] = tested on: CDIM antigen on human pro-B cell line NALM-6; experiment: Binding of CDIM binding proteins to CDIM antigen on NALM-6 cells, flow cytometry (MFI); conditions: 1 hour on ice, non-linear regression curve fit
Experimental: This example describes how the binding properties of the disclosed antibodies were investigated. The antibodies were prepared by affinity chromatography. In FIG. 6A, the human pro-B cell line, NALM-6, which expresses the CDIM antigen on the cell surface was stained with the series of recombinant IgM antibodies. The antibodies were used to determine the dose response beginning at 20 μg/tube diluted stepwise by 2, to a final concentration at 0.039 μg. Cells were stained in a 100 μl volume in 3% FBS/PBS on ice for 1 hour followed by a subsequent staining with DyLight-488 conjugated anti-human IgM (Jackson Immuno), 1 μg/ml for 20 minutes at 4 C.
Analysis of CDIM binding was performed on FACScan flow cytometer using CellQuest analysis software. Results are shown as raw data points with Mean Fluorescence Intensity (MFI) on Y-axis and concentration of primary antibody (μg/100 μl) on X-axis.
The data were re-analyzed using GraphPad analysis program to fit the results using non-linear regression curve fit. EC50 (μg/100 μl) for each antibody was (a) 10.6 for IGM1, (b) 2.2 for IGM23, (c) 2.2 for IGM34, and (d) 1.7 for IGM36.

[3] = tested on: Human pro-B NALM-6 cells; experiment: Human complement dependent cytotoxicity (CDC) assay, CCK8; type: cell-based; conditions: Nalm-6 cells with human complement, 24 hours, supernatant containing expressed antibody
From the text: “Complement-dependent cytotoxicity” or “CDC” refers to the lysis of a target cell in the presence of complement. Activation of the classical complement pathway is initiated by the binding of the first component of the complement system (CIq) to antibodies, which are bound to their cognate antigen. To assess complement activation, a CDC assay, as described in Hinton et al, J. Immunol. 2006 Jan. 1; 176(1):346-56, may be performed. Briefly, this example describes how the cytotoxicity of the CDIM binding proteins was investigated. Human pro-B NALM-6 cells (50,000) were plated in a 96-well flat bottom microtiter plate. […] After 24 hours, a colorimetric substrate CCK8 was added for 3 hours and then the optical density (OD) was measured at 450 nm wavelength on a Microtiter Plate Reader. Quantification of the increase in OD is directly proportional to viable proliferating NALM-6 cells. […] The IC50 was calculated for each antibody using the same approach as described above.
TABLE 2 summarizes the data shown in FIG. 6 and FIGS. 7A-7F for the CDIM binding proteins comprising variable heavy chains H1, H2, H3, H4, H5, H6, H7, H9, H10, H11, H12, H13, H14, H15, H16, H17, H18, H19, H20, and H21, respectively. The ELISA value refers to the concentration of IgM determined in the conditioned media following transient transfection of IgM heavy and light chains. […]

[4] = tested on: ss DNA; experiment: ELISA binding to non-CDIM antigen ssDNA; conditions: maximal reaction (OD450 nm), IgM at 10 μg/ml
Experimental: (§1) This example describes the binding specificity of the CDIM binding proteins for antigens other than CDIM. The antibodies were purified by affinity chromatography. Antibodies were tested across a broad dose range against a panel of antigens available in commercially available ELISA kits. ELISA plates pre-coated with the antigens, ssDNA (Inova Diagnostics, Inc, San Diego, Calif.), dsDNA (Inova Diagnostics, Inc., San Diego, Calif.), cardiolipin (Inova Diagnostics, Inc., San Diego, Calif.) MDA-LDL (malondialdehyde modified low density lipoprotein) (Rocky Mountain Diagnostics, Colorado Springs, Colo.) were purchased from various vendors. Lipid A (Avanti Polar Lipids, Alabaster, Ala.) was purchased as an antigen, dissolved in ethanol and diluted in 100 mM Na carbonate buffer at pH 9.5 prior to coating onto ELISA plates. Anti-CDIM antibodies were used at concentrations indicated and ELISA was performed according to manufacturers recommendations. Briefly, plates were blocked with BSA-milk powder for 1 hour, followed by washing. The disclosed antibodies were added at the concentrations indicated. The antibodies were allowed to bind for 1.5 hours at room temperature followed by a wash step. The HRP-conjugated anti-human IgM antibody was added, followed by substrate addition. Results were quantified using absorbance at 450 nm (Bio-Tek Synergy HT). […]

[5] = ELISA binding to non-CDIM antigen chondroitin sulfate; conditions: maximal reaction (OD450 nm), IgM at 10 μg/ml
[6] = ELISA binding to non-CDIM antigen LPS; conditions: maximal reaction (OD450 nm), IgM at 10 μg/ml
Experimental: as §1

[7] = ELISA binding to non-CDIM antigen heparan sulfate; conditions: maximal reaction (OD450 nm), IgM at 10 μg/ml
Experimental: as §1

[8] = tested on: ds DNA; experiment: ELISA binding to non-CDIM antigen dsDNA; conditions: maximal reaction (OD450 nm), IgM at 10 μg/ml
Experimental: as §1

[9] = ELISA binding to non-CDIM antigen cardiolipin; conditions: maximal reaction (OD450 nm), IgM at 10 μg/ml
Experimental: as §1

[10] = ELISA binding to panel of antigens other than CDIM (FIGS. 8 and 9); conditions: broad dose range, absorbance at 450 nm, listed as MAb 216
From the text: FIG. 8, panels A-E depict ELISA based binding data that is representative of the CDIM binding proteins to antigens other than CDIM. Results using the antigens single stranded DNA (ssDNA), double stranded DNA (dsDNA), lipid A, cardiolipin, and maleonaldehyde LDL (MDA-LDL) are shown in panels A-E, respectively.
FIG. 9, panels A-F depict ELISA based binding data that is representative of the CDIM binding proteins to antigens other than CDIM. Results using the antigens single stranded DNA (ssDNA), double stranded DNA (dsDNA), lipopolysaccharide, cardiolipin, chondoitrin and heparan, are shown in panels A-F, respectively.
This example describes the binding specificity of the CDIM binding proteins for antigens other than CDIM. The antibodies were purified by affinity chromatography. Antibodies were tested across a broad dose range against a panel of antigens available in commercially available ELISA kits. ELISA plates pre-coated with the antigens, ssDNA (Inova Diagnostics, Inc, San Diego, Calif.), dsDNA (Inova Diagnostics, Inc., San Diego, Calif.), cardiolipin (Inova Diagnostics, Inc., San Diego, Calif.) MDA-LDL (malondialdehyde modified low density lipoprotein) (Rocky Mountain Diagnostics, Colorado Springs, Colo.) were purchased from various vendors. […] Results were quantified using absorbance at 450 nm (Bio-Tek Synergy HT).

| Molecule | EC50 of cytotoxicity (% viability) [1] [μg/100 μl] | EC50 of CDIM binding (MFI) [2] [μg/100 μl] | Cytotoxicity IC50 [3] [µg/mL] | ss DNA relative reactivity [4] | Chondroitin Sulfate relative reactivity [5] | LPS relative reactivity [6] | Heparan Sulfate relative reactivity [7] | ds DNA relative reactivity [8] | Cardiolipin relative reactivity [9] | Binding to antigens other than CDIM [10] |
| --- | --- | --- | --- | --- | --- | --- | --- | --- | --- | --- |
| IGM1: IgM; heavy chain H1 (SEQ ID NO:28) with lambda light chain (SEQ ID NO:50) (antibody) heavy: QVQLQQWGAGLLKPSETLSLTCAVYGGSFSGYYWSWIRQPPGKGLEWIGEINHSGSTNYNPSLKSRVTISVDTSKNQFSLKLSSVTAADTAVYYCARGRMAWGASVNFDYWGQGTLVTVSSGSASAPTLFPLVSCENSPSDTSSVAVGCLAQDFLPDSITFSWKYKNNSDISSTRGFPSVLRGGKYAATSQVLLPSKDVMQGTDEHVVCKVQHPNGNKEKNVPLPVIAELPPKVSVFVPPRDGFFGNPRKSKLICQATGFSPRQIQVSWLREGKQVGSGVTTDQVQAEAKESGPTTYKVTSTLTIKESDWLSQSMFTCRVDHRGLTFQQNASSMCVPDQDTAIRVFAIPPSFASIFLTKSTKLTCLVTDLTTYDSVTISWTRQNGEAVKTHTNISESHPNATFSAVGEASICEDDWNSGERFTCTVTHTDLPSPLKQTISRPKGVALHRPDVYLLPPAREQLNLRESATITCLVTGFSPADVFVQWMQRGQPLSPEKYVTSAPMPEPQAPGRYFAHSILTVSEEEWNTGETYTCVVAHEALPNRVTERTVDKSTGKPTLYNVSLVMSDTAGTCY light: DIQMTQSPSTLSASVGDRVTITCTGTSSDVGGYNYVSWYQQHPGKAPKLMIYGVSNRFSGSKSGNTASLTISGLAAEDEADYYCSSYTSSSTLVVFGGGTKLTVLGQPKAAPSVTLFPPSSEELQANKATLVCLISDFYPGAVTVAWKADSSPVKAGVETTTPSKQSNNKYAASSYLSLTPEQWKSHRSYSCQVTHEGSTVEKTVAPTECS | 3.0 | 10.6 | – | – | – | – | – | – | – | – |
| hm216: naturally occurring human monoclonal IgM CDIM binding antibody (SEQ ID NO: 108), used as experimental reference antibody (protein) QVQLQQWGAGLLKPSETLSLTCAVYGGSFSGYYWSWIRQPPGKGLEWIGEINHSGSTNYNPSLKSRVTISVDTSKNQFSLKLSSVTAADTAVYYCARARTARGSSIFDYWGQGTLVTVSSGSASAPTLFPLVSCENSPSDTSSVAVGCLAQDFLPDSITFSWKYKNNSDISSTRGFPSVLRGGKYAATSQVLLPSKDVMQGTDEHVVCKVQHPNGNKEKNVPLPVIAELPPKVSVFVPPRDGFFGNPRKSKLICQATGFSPRQIQVSWLREGKQVGSGVTTDQVQAEAKESGPTTYKVTSTLTIKESDWLSQSMFTCRVDHRGLTFQQNASSMCVPDQDTAIRVFAIPPSFASIFLTKSTKLTCLVTDLTTYDSVTISWTRQNGEAVKTHTNISESHPNATFSAVGEASICEDDWNSGERFTCTVTHTDLPSPLKQTISRPKGVALHRPDVYLLPPAREQLNLRESATITCLVTGFSPADVFVQWMQRGQPLSPEKYVTSAPMPEPQAPGRYFAHSILTVSEEEWNTGETYTCVVAHEALPNRVTERTVDKSTGKPTLYNVSLVMSDTAGTCY | – | – | 1.762 | ++++ (The (+), (++), (+++) and (++++) scores are given for maximal ELISA values of 0.3 to 1, 1 to 2, 2 to 3 and above 3, respectively) | ++++ (The (+), (++), (+++) and (++++) scores are given for maximal ELISA values of 0.3 to 1, 1 to 2, 2 to 3 and above 3, respectively) | ++++ (The (+), (++), (+++) and (++++) scores are given for maximal ELISA values of 0.3 to 1, 1 to 2, 2 to 3 and above 3, respectively) | ++++ (The (+), (++), (+++) and (++++) scores are given for maximal ELISA values of 0.3 to 1, 1 to 2, 2 to 3 and above 3, respectively) | ++++ (The (+), (++), (+++) and (++++) scores are given for maximal ELISA values of 0.3 to 1, 1 to 2, 2 to 3 and above 3, respectively) | +++ (The (+), (++), (+++) and (++++) scores are given for maximal ELISA values of 0.3 to 1, 1 to 2, 2 to 3 and above 3, respectively) | binds to all the antigens tested; also recorded: binds to all of the antigens across a broad dose range |
